This passage reports EC50 results from US20230303667A1.

“And” between values parts separate entries of the source, which are not always exact repeats. Equal values may be shown once.

In the experiment the target is Ebola virus Full length GP (Ebola virus (strain not stated)). The experiment in a line: ELISA on Full length GP.

As for 13F6 (antibody), the EC50 was 0.004 µg/mL and 0.0027 nM.

Usually EC50 stands for the concentration needed to bring the measured effect to its halfway point. Read a low EC50 as greater potency.
